Paper PMC9482650, “Quantitative fragmentomics allow affinity mapping of interactomes” (Nature Communications, 2022)

Tests used:
Assay in all cases: holdup assay
Set-up in all cases: key: below the threshold = too weak to quantify, mostly under pKd 3.1 to 4
[1] = target: T1, PDZRN3_1, Q9UPQ7
T1 sequence (Q9UPQ7 244-349, limits assumed, looked up): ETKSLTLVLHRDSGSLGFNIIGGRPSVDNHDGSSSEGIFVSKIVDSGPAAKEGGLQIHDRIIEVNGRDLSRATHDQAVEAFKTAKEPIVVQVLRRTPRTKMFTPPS

[2] = target: T2, DLG3_2, Q92796
T2 sequence (Q92796 221-321, limits assumed, looked up): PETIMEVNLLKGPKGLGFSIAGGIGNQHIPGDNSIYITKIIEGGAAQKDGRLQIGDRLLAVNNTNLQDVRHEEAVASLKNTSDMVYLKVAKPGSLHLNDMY

[3] = target: T3, SNTG1, Q9NSN8
T3 sequence (Q9NSN8 52-150, limits assumed, looked up): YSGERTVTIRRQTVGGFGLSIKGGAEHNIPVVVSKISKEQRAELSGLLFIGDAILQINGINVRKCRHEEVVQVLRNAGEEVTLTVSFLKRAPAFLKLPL

[4] = target: T4, NHERF3_4, Q5T2W1
T4 sequence (Q5T2W1 373-468, limits assumed, looked up): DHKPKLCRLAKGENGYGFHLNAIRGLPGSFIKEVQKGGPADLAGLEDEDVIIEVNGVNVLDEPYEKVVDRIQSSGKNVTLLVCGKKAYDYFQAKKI

[5] = target: T5, SNTG2, Q9NY99
T5 sequence (Q9NY99 68-166, limits assumed, looked up): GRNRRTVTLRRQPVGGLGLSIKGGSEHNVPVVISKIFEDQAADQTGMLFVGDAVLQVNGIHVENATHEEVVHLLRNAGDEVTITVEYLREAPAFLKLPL

[6] = target: MAST1, Q9Y2H9
Sequence of MAST1, Q9Y2H9 (Q9Y2H9 962-1065): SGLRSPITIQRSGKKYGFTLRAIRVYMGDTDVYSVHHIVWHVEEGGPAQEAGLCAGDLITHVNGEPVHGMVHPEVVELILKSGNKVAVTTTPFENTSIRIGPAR

[7] = target: HTRA1, Q92743
Sequence of HTRA1, Q92743 (Q92743 360-477): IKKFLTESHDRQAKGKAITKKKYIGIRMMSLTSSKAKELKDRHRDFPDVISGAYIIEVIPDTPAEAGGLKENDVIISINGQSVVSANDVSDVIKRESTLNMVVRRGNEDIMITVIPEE

[8] = target: LIMK2, P53671
Sequence of LIMK2, P53671 (P53671 143-248): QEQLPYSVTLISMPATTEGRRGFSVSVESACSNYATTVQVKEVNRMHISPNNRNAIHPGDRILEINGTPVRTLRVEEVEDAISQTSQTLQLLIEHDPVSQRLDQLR

[9] = target: MAGI1_2, Q96QZ7
Sequence of MAGI1_2, Q96QZ7 (Q96QZ7 456-580): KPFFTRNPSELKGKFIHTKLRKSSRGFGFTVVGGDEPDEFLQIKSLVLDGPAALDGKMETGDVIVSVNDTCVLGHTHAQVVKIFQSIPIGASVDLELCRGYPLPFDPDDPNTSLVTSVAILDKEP

[10] = target: SCRIB_3, Q14160
Sequence of SCRIB_3, Q14160 (Q14160 999-1103): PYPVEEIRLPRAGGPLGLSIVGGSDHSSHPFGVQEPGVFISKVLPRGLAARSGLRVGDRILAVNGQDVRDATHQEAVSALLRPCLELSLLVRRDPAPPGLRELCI

[11] = target: Inadl_9, Q8NI35
Sequence of Inadl_9, Q8NI35 (Q8NI35 1530-1615): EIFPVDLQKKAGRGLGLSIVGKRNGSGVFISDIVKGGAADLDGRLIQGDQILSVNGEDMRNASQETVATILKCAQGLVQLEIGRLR

[12] = target: NHERF2_2, Q15599
Sequence of NHERF2_2, Q15599 (Q15599 142-238): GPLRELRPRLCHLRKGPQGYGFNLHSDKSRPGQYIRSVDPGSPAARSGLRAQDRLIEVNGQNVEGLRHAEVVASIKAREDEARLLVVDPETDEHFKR

[13] = target: T6, HTRA4, P83105
T6 sequence (P83105 378-476, limits assumed, looked up): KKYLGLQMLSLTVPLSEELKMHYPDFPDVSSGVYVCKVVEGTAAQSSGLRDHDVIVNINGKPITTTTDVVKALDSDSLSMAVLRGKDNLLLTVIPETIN

[14] = target: MAGI2_5, Q86UL8
Sequence of MAGI2_5, Q86UL8 (Q86UL8 915-1017): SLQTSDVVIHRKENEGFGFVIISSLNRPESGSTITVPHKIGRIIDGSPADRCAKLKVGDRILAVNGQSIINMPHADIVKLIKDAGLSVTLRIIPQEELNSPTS

[15] = target: T7, MPP7, Q5T2T1
T7 sequence (Q5T2T1 134-230, limits assumed, looked up): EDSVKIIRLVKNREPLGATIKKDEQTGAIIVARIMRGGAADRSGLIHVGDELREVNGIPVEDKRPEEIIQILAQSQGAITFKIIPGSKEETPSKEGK

[16] = target: T8, RAPGEF6, Q8TEU7
T8 sequence (Q8TEU7 525-625, limits assumed, looked up): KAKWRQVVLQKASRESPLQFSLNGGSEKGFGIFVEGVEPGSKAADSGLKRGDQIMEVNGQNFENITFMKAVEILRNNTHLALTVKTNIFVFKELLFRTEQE

[17] = target: MAGI2_3, Q86UL8
Sequence of MAGI2_3, Q86UL8 (Q86UL8 600-682): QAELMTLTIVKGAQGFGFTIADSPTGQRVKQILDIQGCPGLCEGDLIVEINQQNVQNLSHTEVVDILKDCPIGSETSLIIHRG

[18] = target: NHERF4_2, Q86UT5
Sequence of NHERF4_2, Q86UT5 (Q86UT5 220-308): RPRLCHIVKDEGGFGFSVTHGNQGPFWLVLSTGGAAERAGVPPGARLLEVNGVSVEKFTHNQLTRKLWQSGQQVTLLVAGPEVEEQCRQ

[19] = target: DLG4_1, P78352
Sequence of DLG4_1, P78352 (P78352 62-152): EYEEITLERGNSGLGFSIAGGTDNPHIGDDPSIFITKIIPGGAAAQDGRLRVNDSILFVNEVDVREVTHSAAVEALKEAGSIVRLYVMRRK

[20] = target: IL16_3, Q14005
Sequence of IL16_3, Q14005 (Q14005 1107-1207): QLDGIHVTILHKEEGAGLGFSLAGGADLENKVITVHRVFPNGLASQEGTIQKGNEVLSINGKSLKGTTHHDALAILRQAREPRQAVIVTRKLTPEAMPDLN

[21] = target: PICK1, Q9NRD5
Sequence of PICK1, Q9NRD5 (Q9NRD5 17-115): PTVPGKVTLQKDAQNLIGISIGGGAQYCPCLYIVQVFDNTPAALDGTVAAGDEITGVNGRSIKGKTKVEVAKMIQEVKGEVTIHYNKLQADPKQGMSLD

[22] = target: GRIP2_7, Q9C0E4
Sequence of GRIP2_7, Q9C0E4 (Q9C0E4 934-1023): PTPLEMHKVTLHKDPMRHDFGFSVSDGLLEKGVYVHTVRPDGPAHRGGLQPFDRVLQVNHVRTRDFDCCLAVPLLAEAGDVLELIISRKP

[23] = target: LNX1_1, Q8TBB1
Sequence of LNX1_1, Q8TBB1 (Q8TBB1 261-371): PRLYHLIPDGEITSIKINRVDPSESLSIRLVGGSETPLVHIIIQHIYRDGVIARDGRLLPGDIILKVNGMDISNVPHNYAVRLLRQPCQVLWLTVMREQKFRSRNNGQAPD

[24] = target: FRMPD4, Q14CM0
Sequence of FRMPD4, Q14CM0 (Q14CM0 67-160): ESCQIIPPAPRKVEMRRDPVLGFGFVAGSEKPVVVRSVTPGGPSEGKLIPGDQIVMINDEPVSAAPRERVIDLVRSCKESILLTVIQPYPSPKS

[25] = target: T9, LIN7A, O14910
T9 sequence (O14910 103-200, limits assumed, looked up): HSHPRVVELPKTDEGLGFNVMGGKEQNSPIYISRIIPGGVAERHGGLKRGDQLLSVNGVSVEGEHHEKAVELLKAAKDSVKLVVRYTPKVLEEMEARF

[26] = target: Inadl_3, Q8NI35
Sequence of Inadl_3, Q8NI35 (Q8NI35 359-469): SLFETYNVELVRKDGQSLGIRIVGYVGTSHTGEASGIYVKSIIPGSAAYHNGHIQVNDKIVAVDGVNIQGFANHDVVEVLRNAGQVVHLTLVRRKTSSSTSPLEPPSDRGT

[27] = target: T10, PARD3B_1, Q8TEW8
T10 sequence (Q8TEW8 196-299, limits assumed, looked up): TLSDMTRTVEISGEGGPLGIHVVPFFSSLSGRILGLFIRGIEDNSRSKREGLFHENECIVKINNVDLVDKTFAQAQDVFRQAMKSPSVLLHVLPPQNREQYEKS

[28] = plain residues with an end cap or a label only (N-terminal biotin on a linker: ttds)
[29] = plain residues with an end cap or a label only (N-terminal biotin on a linker: ahx)

Binder: QPGTPTRTAV [MAP2K2, P36507]
- pKd [1, 28]: below the threshold
- pKd [2, 28]: 3.93
- pKd [3, 28]: 3.66
- pKd [4, 28]: below the threshold
- pKd [5, 28]: below the threshold
- pKd [6, 28]: below the threshold
- pKd [7, 28]: below the threshold
- pKd [8, 28]: below the threshold
- pKd [9, 28]: below the threshold
- pKd [10, 28]: below the threshold
- pKd [11, 28]: below the threshold
- pKd [12, 28]: below the threshold
- pKd [13, 28]: below the threshold
- pKd [14, 28]: 3.59
- pKd [15, 28]: below the threshold
- pKd [16, 28]: 3.67
- pKd [17, 28]: 3.6
- pKd [18, 28]: below the threshold
- pKd [19, 28]: below the threshold
- pKd [20, 28]: below the threshold
- pKd [21, 28]: below the threshold
- pKd [22, 28]: below the threshold
- pKd [23, 28]: 3.6
- pKd [24, 28]: below the threshold
- pKd [25, 28]: below the threshold
- pKd [26, 28]: below the threshold
- pKd [27, 28]: below the threshold

Binder: RRVRKLPSTTL [RPS6KA1, Q15418]
- pKd [1, 28]: 3.75
- pKd [2, 28]: below the threshold
- pKd [3, 28]: 3.88
- pKd [4, 28]: 3.65
- pKd [5, 28]: 4.54
- pKd [6, 28]: 4.68
- pKd [7, 28]: 4.09
- pKd [8, 28]: below the threshold
- pKd [9, 28]: 4.3
- pKd [10, 28]: 4.36
- pKd [11, 28]: below the threshold
- pKd [12, 28]: 3.97
- pKd [13, 28]: 3.71
- pKd [14, 28]: below the threshold
- pKd [15, 28]: 3.61
- pKd [16, 28]: 3.7
- pKd [17, 28]: 3.63
- pKd [18, 28]: below the threshold
- pKd [19, 28]: 3.68
- pKd [20, 28]: below the threshold
- pKd [21, 28]: below the threshold
- pKd [22, 28]: below the threshold
- pKd [23, 28]: 3.76
- pKd [24, 28]: below the threshold
- pKd [25, 28]: below the threshold
- pKd [26, 28]: below the threshold
- pKd [27, 28]: 4.4

Binder: CNTVTVETVV [MAS1, P04201]
- pKd [1, 28]: below the threshold
- pKd [2, 28]: 4.53
- pKd [3, 28]: 3.86
- pKd [4, 28]: 3.54
- pKd [5, 28]: 3.93
- pKd [6, 28]: 3.58
- pKd [7, 28]: 3.61
- pKd [8, 28]: 3.7
- pKd [9, 28]: below the threshold
- pKd [10, 28]: below the threshold
- pKd [11, 28]: below the threshold
- pKd [12, 28]: below the threshold
- pKd [13, 28]: below the threshold
- pKd [14, 28]: 3.95
- pKd [15, 28]: below the threshold
- pKd [16, 28]: below the threshold
- pKd [17, 28]: 3.63
- pKd [18, 28]: below the threshold
- pKd [19, 28]: 3.98
- pKd [20, 28]: below the threshold
- pKd [21, 28]: below the threshold
- pKd [22, 28]: below the threshold
- pKd [23, 28]: 3.52
- pKd [24, 28]: below the threshold
- pKd [25, 28]: below the threshold
- pKd [26, 28]: 3.75
- pKd [27, 28]: below the threshold

Binder: KKNKDKEYYV [NRXN1, Q9ULB1]
- pKd [1, 29]: below the threshold
- pKd [2, 29]: below the threshold
- pKd [3, 29]: below the threshold
- pKd [4, 29]: below the threshold
- pKd [5, 29]: below the threshold
- pKd [6, 29]: below the threshold
- pKd [7, 29]: 4.84
- pKd [8, 29]: below the threshold
- pKd [9, 29]: below the threshold
- pKd [10, 29]: below the threshold
- pKd [11, 29]: 3.97
- pKd [12, 29]: below the threshold
- pKd [13, 29]: below the threshold
- pKd [14, 29]: 3.57
- pKd [15, 29]: 4.29
- pKd [16, 29]: below the threshold
- pKd [17, 29]: below the threshold
- pKd [18, 29]: below the threshold
- pKd [19, 29]: below the threshold
- pKd [20, 29]: below the threshold
- pKd [21, 29]: below the threshold
- pKd [22, 29]: 4.55
- pKd [23, 29]: below the threshold
- pKd [24, 29]: 3.58
- pKd [25, 29]: below the threshold
- pKd [26, 29]: below the threshold
- pKd [27, 29]: below the threshold
